Results from paper doi:10.1101/2019.12.18.881771 (bioRxiv, 2019).
One block for each molecule: values may come before it. No end group written: not given here. *: point of attachment. FITC = O=C1OC2(c3ccc(O)cc3Oc3cc(O)ccc32)c2ccc(NC(=S)*)cc21

Experiments:
[1] = biological target: GIT1 FAT domain (aa 640-770) (mouse) (UniProt Q68FF6); assay: ITC
[2] = biological target: FITC-labelled β-Pix GBD peptide, wild type (mouse); assay: fluorescence polarisation
[3] = biological target: T1, GIT1 SHD domain (mouse, UniProt Q68FF6 260-371); assay: ITC
T1 sequence (looked up): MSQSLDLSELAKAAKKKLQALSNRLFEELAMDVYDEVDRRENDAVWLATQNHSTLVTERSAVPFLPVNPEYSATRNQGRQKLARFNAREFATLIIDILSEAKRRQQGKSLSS

[4] = biological target: T2, GIT1 GAP-ANK-SHD (GAS) tandem (mouse, UniProt Q68FF6 1-371); assay: ITC
T2 sequence (looked up): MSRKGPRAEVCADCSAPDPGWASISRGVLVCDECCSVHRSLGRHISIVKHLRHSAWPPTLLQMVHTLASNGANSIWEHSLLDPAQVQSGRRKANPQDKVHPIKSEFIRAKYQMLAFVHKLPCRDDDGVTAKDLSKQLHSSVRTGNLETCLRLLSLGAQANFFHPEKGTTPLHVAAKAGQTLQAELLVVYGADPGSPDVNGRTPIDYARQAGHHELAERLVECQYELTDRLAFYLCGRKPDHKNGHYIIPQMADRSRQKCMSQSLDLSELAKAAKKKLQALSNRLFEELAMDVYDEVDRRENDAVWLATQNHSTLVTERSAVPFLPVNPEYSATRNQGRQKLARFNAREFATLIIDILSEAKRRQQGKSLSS

[5] = biological target: T2, GIT1 GAP-ANK-SHD (GAS) tandem; assay: fluorescence polarisation
[6] = biological target: the molecule itself; assay: SEC-MALS

GIT1 FAT domain (aa 640-770) (mouse), sequence (Q68FF6 640-770): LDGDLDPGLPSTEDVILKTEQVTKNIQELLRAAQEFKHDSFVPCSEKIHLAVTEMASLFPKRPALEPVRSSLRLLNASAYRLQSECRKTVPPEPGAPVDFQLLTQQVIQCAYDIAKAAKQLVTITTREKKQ

Molecule: Paxillin LD2 motif (peptide)
Kd [1]: 164000 nM

Molecule: Paxillin LD4 motif (aa 261-282) (peptide)
Kd [1]: 3000 nM

B4: GIT1 coiled-coil domain, wild type (domain or fragment, mouse, UniProt Q68FF6 426-483, looked up)
chain: SDGAVTLQEYLELKKALATSEAKVQQLMKVNSSLSDELRRLQREIHKLQAENLQLRQP
stoichiometry N [6]: 2

B5: β-Pix coiled-coil domain, wild type (domain or fragment, mouse, UniProt Q9ES28-4 691-751, looked up)
chain: EEKSLVDTVYALKDEVQELRQDNKKMKKSLEEEQRARKDLEKLVRKVLKNMNDPAWDETNL
stoichiometry N [6]: 3

Other lines, results leading:

Kd [2]: 27 nM
Molecule: GIT2 GAP-ANK-SHD (GAS) tandem, wild type, purified (domain or fragment)

Kd [3]: ~180 nM
Kd [4]: ~15 nM
B1: β-Pix GBD peptide (aa 528-548) (peptide)
peptide: ALEEDAQILKVIEAYCTSAKT

Kd [5]: ~76400 nM
B2: FITC-labelled β-Pix GBD Y542D peptide (peptide, UniProt Q9ES28-4 633-653, looked up)
peptide: {FITC}-ALEEDAQILKVIEADCTSAKT

Kd [3]: ~150 nM
B3: β-Pix 494-555 (domain or fragment, mouse, UniProt Q9ES28-4 599-660, looked up)
chain: DLSKSPKTMKKLLPKRKPERKPSDEEFAVRKSTAALEEDAQILKVIEAYCTSAKTRQTLNSS
